First the molecules themselves.
B1: Clone V316 (VHH)
VHH: EVQLVESGGGLVRPGGSLRLSCAASGLTFSRTWMSWVRQAPGKGLEWVASINDDGSEKYYVDSVKGRFTISRDNARNSLYLQMNRLRAEDTAVYYCARVDSERFLEWYYFDYWGQGTLVTVSS
notes: human VH-only single-domain antibody, no VL
B2: Clone 83B scFv (scFv)
scFv: QVQLVQSGAEVKKPGASVKVSCKASGYTFTSYYMHWVRQAPGQGLEWMGIINPNGGSTSYAQKFQGRVTMTRDTSTSTVYMELSSLRSEDTAVYYCARDSSYDAFDIWGQGTMVTVSSGGGGSGGGGSGGGGSAIQLTQSPSTLSASVGDRVTITCQASQDISNYLNWYQQKPGKAPKLLINDASYLETGVPSRFSGSGSGTDFTLTISSLQPEDIATYYCQQYESLPYTFGQGTKLEIK
notes: De-glycosylation variant of clone 83 (S to N at VH position 53, Kabat)
B3: Clone 305 scFv (scFv)
scFv: EVQLVESGGGLVQPGRSLRLSCTASGFTFGDYAMSWVRQAPGKGLEWVSSISGSGRSTDHADYVKGRFTISRDNSKNTVYLQMNRLRAEDTAVYYCAKVSNYEYYFDYWAQGTLVTVSSQSVLTQPPSVSVAPGQTARITCGGNNIGSTSVHWFQQKPGQAPVLVVYDDSDRPSGIPERFSGSNSGNTATLTISRVEAGDEADYYCQVWDNDSDHRVFGGGTKLTVL
B4: Clone 298 scFv (scFv)
scFv: EVQLVESGGGLVQPGRSLRLSCTASGFTFGDYAMSWVRQAPGKGLEWVSSISGSGRSTDHADYVKGRFTISRDNSKNTVYLQMNRLRAEDTAVYYCAKVSNYEYYFDYWAQGTLVTVSSGGGGSGGGGSGGGGSEIVLTQSPSVSVAPGQTARITCGGSNIGSESVNWYQWKSGQVPVLVVSDTTDRPSGIPGRFTGTRSGTTATLTISGVEAGDEADYHCQVWDDTGDHPVFGGGTKLTVL
B5: Clone 350 scFv (scFv)
scFv: EVQLVESGGGLVQPGRSLRLSCTASGFTFGDYAMSWVRQAPGKGLEWVSSISGSGRSTDHADYVKGRFTISRDNSKNTVYLQMNRLRAEDTAVYYCAKVSNYEYYFDYWAQGTLVTVSSQPVLTQPHSVSESPGKTVTISCTRSSGSIASNYVQWYQQRPGSAPTTVIYEDNQRPSGVPDRFSGSIDSSSNSASLTISGLKTEDEADYYCQSYDSSNHVFGTGTKLTVL
B6: Clone 366 scFv (scFv)
scFv: EVQLVESGGGLVQPGRSLRLSCTASGFTFGDYAMSWVRQAPGKGLEWVSSISGSGRSTDHADYVKGRFTISRDNSKNTVYLQMNRLRAEDTAVYYCAKVSNYEYYFDYWAQGTLVTVSSQSVLTQPPSVPGTPGQRVTITCSGSRFNIGSNTVNWYQQLPGTAPKLLIYSNNQRPSGVPDRFSGSKSGTSASLAISGLQSEDEADYYCAAWDDSLNGYVFGTGTKLTVL
notes: Printed without a linker
B7: CAR containing Clone 83B scFv (VH-VL) (other)
chain: B2 scFv
notes: Chimeric antigen receptor expressed on primary human CD8+ T cells; tEGFR marker is split off by T2A; also called 83B CAR; not shown: Ig-derived hinge only spacer, human CD28-derived transmembrane domain, human 4-1BB-derived intracellular signaling domai
B8: CAR containing Clone 48 scFv (VH-VL) (other)
chain: QVTLKESGGGLVKPGGSLRLSCAASGFTFSNAWMSWVRQAPGKGLEWVGRIKSKTDGGTTDYAAPVKGRFTISRDDSKNTLYLQMNSLKTEDTAVYYCARDFGRWSYYFDYWSQGTLVTVSSGGGGSGGGGSGGGGSQSVLTQPSSVSGTPGQRVTISCSGSSSNIGSNYVYWYQQLPGTAPKLLIYRNNQRPSGVPDRFSGSKSGTSASLAISGLRSEDEADYYCAAWDDSLSGVVFGGGTKLTVL
notes: Chimeric antigen receptor expressed on primary human CD8+ T cells; tEGFR marker is split off by T2A; also called 48 CAR; not shown: Ig-derived hinge only spacer, human CD28-derived transmembrane domain, human 4-1BB-derived intracellular signaling domai
B9: CAR containing Clone V353 VH-only antigen-binding domain (other)
chain: QVTLKESGGGLVKPGGSLRLSCAASGFTFSNAWMSWVRQAPGKGLEWVGRIKSKTDGGTTDYAAPVKGRFTISRDDSKNTLYLQMNSLKTEDTAVYYCARDFGRWGYYFDYWSQGTLVTVSS
notes: Chimeric antigen receptor expressed on primary human CD8+ T cells; tEGFR marker is split off by T2A; also called V353 CAR; not shown: Ig-derived hinge only spacer, human CD28-derived transmembrane domain, human 4-1BB-derived intracellular signaling domai
B10: CAR containing Clone 298 scFv (VH-VL) (other)
chain: B4 scFv
notes: Chimeric antigen receptor expressed on primary human CD8+ T cells; tEGFR marker is split off by T2A; also called 298 CAR; not shown: Ig-derived hinge only spacer, human CD28-derived transmembrane domain, human 4-1BB-derived intracellular signaling domai
B11: CAR containing Clone V70 VH-only antigen-binding domain (other)
chain: QVQLLESGGGLVQPGRSLRLSCTASGFTFGDYAMSWVRQAPGKGLEWVSSISGSGRSTDHADYVKGRFTISRDNSKNTVYLQMNRLRAEDTAVYYCAKVSNYEYYFDYWAQGTLVTVSS
notes: Chimeric antigen receptor expressed on primary human CD8+ T cells; tEGFR marker is split off by T2A; also called V70 CAR; not shown: Ig-derived hinge only spacer, human CD28-derived transmembrane domain, human 4-1BB-derived intracellular signaling domai
B12: Clone V353 (VHH)
VHH: B9 chain
notes: as for B1
B13: Clone V95 (VHH)
VHH: QVQLVESGGGLVKPGGSLRLSCAASGFTFSNAWMSWVRQAPGKGLEWVGRIKSKTDGGTTDYAAPVKGRFTISRDDSKKTLYLQMNSLKTEDTAVYYCARGSGELRFLESYYFDYWGQGTLVTVSS
notes: as for B1
B14: Clone V102 (VHH)
VHH: QVQLVESGGGLVQPGRSLRLSCTASGFTFGDYAMSWVRQAPGKGLEWVGFIRSKAYGGTTEYAASVKGRFTISRDDSQSIAYLQMDSLKTEDTAVYYCAKVGPSWDYYFDYWGQGTLVTVSS
notes: as for B1
B15: Clone V86 (VHH)
VHH: QVQLLESGGGLVQPGGSLRLSCAASGFTFSSYAMSWVRQAPGKGLEWVSAISGSGGSTYYADSVKGRFTISRDNSKNTLYLQMNSLRAEDTAVYYCARVIFGVVNIPDYWGQGTLVTVSS
notes: as for B1

T2 sequence (Q9Z139 30-937): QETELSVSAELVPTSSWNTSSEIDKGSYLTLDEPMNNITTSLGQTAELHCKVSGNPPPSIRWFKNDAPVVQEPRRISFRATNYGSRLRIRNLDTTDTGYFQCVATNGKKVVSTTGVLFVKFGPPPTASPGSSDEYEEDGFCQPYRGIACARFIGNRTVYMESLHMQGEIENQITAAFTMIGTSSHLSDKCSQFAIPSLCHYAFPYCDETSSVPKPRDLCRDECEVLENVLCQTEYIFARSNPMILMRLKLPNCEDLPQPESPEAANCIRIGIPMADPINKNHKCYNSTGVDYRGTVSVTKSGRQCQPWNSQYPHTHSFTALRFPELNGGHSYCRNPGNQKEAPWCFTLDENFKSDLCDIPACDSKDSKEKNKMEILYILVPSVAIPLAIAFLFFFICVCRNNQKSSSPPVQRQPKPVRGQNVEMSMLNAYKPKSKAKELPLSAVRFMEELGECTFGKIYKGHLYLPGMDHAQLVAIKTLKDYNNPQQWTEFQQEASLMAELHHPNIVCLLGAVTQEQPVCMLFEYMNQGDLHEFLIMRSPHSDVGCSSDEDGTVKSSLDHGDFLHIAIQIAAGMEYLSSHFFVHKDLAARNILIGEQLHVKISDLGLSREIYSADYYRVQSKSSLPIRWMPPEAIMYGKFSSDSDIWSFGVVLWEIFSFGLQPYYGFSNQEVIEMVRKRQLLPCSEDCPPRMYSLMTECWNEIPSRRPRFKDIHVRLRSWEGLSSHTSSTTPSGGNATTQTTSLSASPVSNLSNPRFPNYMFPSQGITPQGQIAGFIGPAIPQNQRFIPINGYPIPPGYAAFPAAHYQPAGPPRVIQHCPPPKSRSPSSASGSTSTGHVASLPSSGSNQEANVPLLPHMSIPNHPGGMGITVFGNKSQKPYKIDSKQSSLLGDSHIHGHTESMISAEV

The target of one test is T1, Human ROR1 (receptor tyrosine kinase-like orphan receptor 1) (human, UniProt Q01973 30-937).
T1 construct: also called hROR1; K562/ROR1
T1 sequence (Q01973 30-937): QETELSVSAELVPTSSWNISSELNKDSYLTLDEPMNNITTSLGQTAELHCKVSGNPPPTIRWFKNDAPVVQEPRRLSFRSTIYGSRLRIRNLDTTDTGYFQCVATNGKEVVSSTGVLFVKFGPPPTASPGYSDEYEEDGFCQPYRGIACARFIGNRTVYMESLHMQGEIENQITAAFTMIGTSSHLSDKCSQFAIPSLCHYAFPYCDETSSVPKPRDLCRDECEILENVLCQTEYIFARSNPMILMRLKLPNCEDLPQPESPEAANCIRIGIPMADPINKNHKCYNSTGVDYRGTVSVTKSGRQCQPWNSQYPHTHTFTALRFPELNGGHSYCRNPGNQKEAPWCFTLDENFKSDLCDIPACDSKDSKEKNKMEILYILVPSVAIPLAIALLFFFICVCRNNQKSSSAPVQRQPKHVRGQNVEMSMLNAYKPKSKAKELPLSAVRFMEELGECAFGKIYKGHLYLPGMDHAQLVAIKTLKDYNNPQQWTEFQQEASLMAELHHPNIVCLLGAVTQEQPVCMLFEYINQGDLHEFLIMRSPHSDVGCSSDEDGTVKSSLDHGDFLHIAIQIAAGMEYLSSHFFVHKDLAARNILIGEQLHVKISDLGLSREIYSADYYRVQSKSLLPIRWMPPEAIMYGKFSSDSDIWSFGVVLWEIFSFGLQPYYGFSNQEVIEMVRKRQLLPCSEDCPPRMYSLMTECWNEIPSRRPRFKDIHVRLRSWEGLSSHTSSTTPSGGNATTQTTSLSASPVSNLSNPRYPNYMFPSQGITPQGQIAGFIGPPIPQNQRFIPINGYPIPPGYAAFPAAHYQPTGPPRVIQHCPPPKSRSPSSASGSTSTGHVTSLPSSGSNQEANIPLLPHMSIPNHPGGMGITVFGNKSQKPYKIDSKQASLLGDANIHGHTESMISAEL
The experiment in a line: flow cytometry on ROR1-expressing K562 and CHOK1 cells (n = 1).
One may read the EC50 as the concentration at which the effect is half-maximal. B1 registered an EC50 of 28.7 nM.

The next test concerns the target T1, Human ROR1 (receptor tyrosine …). The description is as above. The source holds these as a separate data set.
B2: it took 6.4 nM to reach a half-maximal effect (EC50).
On the same count and under the same terms, in the case of B3 it was 5.1 nM; in that of B4, 5.9 nM; in that of B5, 22.9 nM.
As for B6, the midpoint of the response, the EC50, lay at 10 nM.

A further test concerns the target T2, Mouse ROR1 (mouse, UniProt Q9Z139 30-937).
T2 construct: also called mROR1; K562/mouse ROR1
Nature of the test: inferred from IFN-gamma release of CAR T cells on K562/mouse ROR1 cells. The procedure:
Cytokine release was assessed following incubation of the CAR-expressing cells with either K562/human ROR1 (hROR1) or K562/mouse ROR1 (mROR1) antigen-expressing cells. Transduced CD8+ T cells were co-cultured with antigen-expressing cells at a single effector to target (E:T). The co-cultured cells were incubated for about 24 hours, and then supernatants were collected for measurement of IFN-γ using a cytokine immunoassay.
Regarding B7, the binding result is “binds”.
The same measure, in the same setting: then B8, with “binds”; and B9, with “binds”.
Consider B10, for which the binding result is listed as “binds”.
In the case of B11, the binding result was “binds”.

The target in the next test is T1, Human ROR1 (receptor tyrosine …). The experiment in a line: flow cytometry on ROR1-expressing K562 and CHOK1 cells, mean (n = 2). (In general: Flow cytometry measures light scatter and fluorescence of single cells or particles in a stream.)
In turn, B12 registered an EC50 of 0.7 nM.
Still for that read-out and setting: in the case of B13 it was 35.5 nM.
Consider B14, for which the EC50 was determined as 129 nM.
With B15, the EC50 stood at 97.7 nM.

The next test shares this target. The experiment in a line: flow cytometry competition, competitor R12 scFv on ROR1-expressing cells (n = 1). How it is done: (§1) Assays also were performed to assess competition of the clones with the reference antibody (R12 scFv), for binding to ROR1-expressing cells. VH clones were titrated against 2 nM Myc-R12 on ROR1/K562 cells and competition assessed with an anti-Myc-Alexa647 secondary antibody, and the half maximal inhibitory concentration (IC₅₀) determined for respective clones.
(§2) Assays also were performed to assess competition (measured as half maximal inhibitory concentration (IC₅₀)) of the clones with the R12 scFv reference antibody for binding to ROR1-expressing cells, as described in Example 1. Percent (%) max ROR1 and % max competition, as compared to the R12 scFv reference antibody, were determined as described in Example 1.
In general, IC50 refers to the concentration that gives 50% inhibition. Read a high IC50 as a need for much substance. B2 registered an IC50 of 15 nM.
B3 had an IC50 of 62.5 nM. This IC50 is about 4.2-fold higher than that of the molecule before.
Consider B4, for which the IC50 is 41.3 nM.
The same measure, in the same setting: then B5, with 49.1 nM; and B6, with 53.9 nM.

The next test has the same target. The experiment in a line: flow cytometry on ROR1-expressing cells; predicted plateau relative to R12 scFv = 100%. How it is done:
(§3) Additionally, percent (%) maximum (max) binding to ROR1-expressing cells and % max competition with the reference antibody (R12 scFv) were calculated. Percent max binding and competition values were calculated based on predicted plateaus (measured by Prism® using four parameter non-linear regression), relative to values for R12 scFv binding and inhibition, respectively, assigned as 100% in each study.
Consider B12, for which the “% Max Binding” value is 35%.
In the case of B13, the “% Max Binding” value is 61%.
As to B1, the “% Max Binding” value is 78%.

Another test has the same target. Described as above. This is another data set of the same source. The procedure:
as §3, §2
Consider B2, for which the “% Max Binding” value is 140%.
The same measure, in the same setting: then B3, with 86%; and B4, with 96%.
For B5, the “% Max Binding” value was 137%.
The same measure, in the same setting: in the case of B6 it was 104%.

For the next test the target is unchanged. Nature of the test: flow cytometry competition, competitor 2 nM Myc-R12 scFv on ROR1/K562 cells, mean (n = 2). How it is done:
as §1
In turn, B12 came in with an IC50 of 0.4 nM. This lies in the sub-nanomolar range.
Consider B13, for which the IC50 was determined as 19 nM.
B1 returned an IC50 of 28.8 nM.

The target is the same in a further test. Nature of the test: competition with Myc-R12 scFv on ROR1/K562 cells; predicted plateau relative to R12 scFv = 100%. The procedure:
as §1, §3
Regarding B12, the “% Max Competition” value was 62%.
Consider B13, for which the “% Max Competition” value is 36%.
For B1, the “% Max Competition” value is 37%.

For a further test the target is unchanged. The experiment in a line: competition with R12 scFv on ROR1-expressing cells; predicted plateau relative to R12 scFv = 100%. The procedure:
as §3, §2
Turning to B2, the “% Max Competition” value was 103%.
B3: the “% Max Competition” value was 97%.
As for B4, the “% Max Competition” value was 88%.
For B5, the “% Max Competition” value was 80%.
Turning to B6, the “% Max Competition” value was 71%.

The record behind these values is US20160208018A1 (JUNO THERAPEUTICS, published 2016).
